# Measured values as given in the RNAGym collection of RNA variant scans (doi:10.7554/elife.80360).
# B1: HDV Ribozyme (parent)
# chain: GGCCGGCAUGGUCCCAGCCUCCUCGCUGGCGCCGGCUGGGCAACAUUCCGAGGGGACCGUCCCCUCGGUAAUGGCGAAUGGGACCCA
# Variants of: B1
# Assay: self-cleavage, relative activity (ratio to wild type); higher = more cleavage; co-transcriptional
row,Variant,self-cleavage
1,GGCCGGCAAGGUCCCAGCCUCCUCGCUGGCGCCGGCUGGGCAACAUUCCGAGGGGACCGUCCCCUCGGUAAUGGUGAAUGGGACCCA [U9A C75U],0.145
2,GGCCGGCAAGGUCCCAGCCUCCUCGCUGGCGCCGGCUGGGCAACAUUCCGAGGGGACCGUCCCCUCGGUAAUGGAGAAUGGGACCCA [U9A C75A],0.0573
3,GGCCGGCAAGGUCCCAGCCUCCUCGCUGGCGCCGGCUGGGCAACAUUCCGAGGGGACCGGCCCCUCGGUAAUGGCGAAUGGGACCCA [U9A U60G],0.9
4,GGCCGGCAAGGUCCCAGCCUCCUCGCUGGCGCCGGCUGGGCAACAUUCCGAGGGGACCGCCCCCUCGGUAAUGGCGAAUGGGACCCA [U9A U60C],1.02
5,GGCCGGCAAGGUCCCAGCCUCGUCGCUGGCGCCGGCUGGGCAACAUUCCGAGGGGACCGUCCCCUCGGUAAUGGCGAAUGGGACCCA [U9A C22G],0.0519
6,GGCCGGCAAGGUCCCAGCCUCCUCGCUGGCGCCGGCUGGGCAACAUUCCGAGGGGACCGUCCCCCCGGUAAUGGCGAAUGGGACCCA [U9A U65C],1.07
7,GGCCGGCAAGGUCCCAGCCUCCUCGCUGGCGGCGGCUGGGCAACAUUCCGAGGGGACCGUCCCCUCGGUAAUGGCGAAUGGGACCCA [U9A C32G],0.0489
8,GGCCGGCACGGUCCCAGCCUCCUCGCUGGCGCCGGUUGGGCAACAUUCCGAGGGGACCGUCCCCUCGGUAAUGGCGAAUGGGACCCA [U9C C36U],0.682
9,GGCCGGCACGGUCCCAGCCUCCUCGCUGGCGCCGGAUGGGCAACAUUCCGAGGGGACCGUCCCCUCGGUAAUGGCGAAUGGGACCCA [U9C C36A],0.178
10,GGCCGGCACGGUCGCAGCCUCCUCGCUGGCGCCGGCUGGGCAACAUUCCGAGGGGACCGUCCCCUCGGUAAUGGCGAAUGGGACCCA [U9C C14G],0.208
11,GGCCGGCACGGUCCCAGCCUCCUCGCUGGCGCCGGCUGGGCAACAUUCCGAGGGGACCGUCCCCUCGGUAAUGGCGAAUGGGACCCU [U9C A87U],1.06
12,GGCCGGCAAGGUCCCAGCCUCCUCGCUGGCGCCGGCUGGGCAACAUUCCGAGGGAACCGUCCCCUCGGUAAUGGCGAAUGGGACCCA [U9A G55A],1.09
13,GGCCGGCAAGGUCCCAGCCUCCUCGCUGGCGCCCGCUGGGCAACAUUCCGAGGGGACCGUCCCCUCGGUAAUGGCGAAUGGGACCCA [U9A G34C],0.375
14,GGCCGGCAAGGUCCCAACCUCCUCGCUGGCGCCGGCUGGGCAACAUUCCGAGGGGACCGUCCCCUCGGUAAUGGCGAAUGGGACCCA [U9A G17A],0.906
15,GGCCGGCAAGGUCCCAGCCUCCUCGCUGGCGCCGGCUGGGCAACAUACCGAGGGGACCGUCCCCUCGGUAAUGGCGAAUGGGACCCA [U9A U47A],1.09
16,GGCCGGCAAGGUCCCAGCCUCCACGCUGGCGCCGGCUGGGCAACAUUCCGAGGGGACCGUCCCCUCGGUAAUGGCGAAUGGGACCCA [U9A U23A],1.12

row,Variant,self-cleavage
1,GGCCGGCAAGGUCCCAGCCUCCUCGCUGGCGCCGGCUGGGCAACAUUCCGAGGGGAGCGUCCCCUCGGUAAUGGCGAAUGGGACCCA [U9A C57G],1.18
2,GGCCGGCACGGUCCGAGCCUCCUCGCUGGCGCCGGCUGGGCAACAUUCCGAGGGGACCGUCCCCUCGGUAAUGGCGAAUGGGACCCA [U9C C15G],0.104
3,GGCCGGCACGGUCCCAGCCUCCUCGCUGGCGCCGGCUGGGCAACCUUCCGAGGGGACCGUCCCCUCGGUAAUGGCGAAUGGGACCCA [U9C A45C],0.957
4,GGCCGGCAAGGUCCCAGCCUCCUCGCUGGCGCCGGCUGGGCAACAUUCCGAUGGGACCGUCCCCUCGGUAAUGGCGAAUGGGACCCA [U9A G52U],0.858
5,GGCCGGCAAGGUCCCAGCCUCCUCGCUGGCGCCGGCUGGGCAACAUUCCGACGGGACCGUCCCCUCGGUAAUGGCGAAUGGGACCCA [U9A G52C],1.16
6,GGCCGGCAAGGUCCCAGCCUCCUCGCUGGCGCCGGCUGGGCAACAUUCCGAGGGGACCGUCCCAUCGGUAAUGGCGAAUGGGACCCA [U9A C64A],1.04
7,GGCCGGCAAGGUCCCAGCCUCCUCGCUGGCGCCGGCUGGGCAACAUUCCGAGGGGACCUUCCCCUCGGUAAUGGCGAAUGGGACCCA [U9A G59U],1.41
8,GGCCGGCAAGGUCCCAGCCUCCUCGCUGGCGCCGGCUGGGCAACAUUCCGAGGGGACCGUCCCCUGGGUAAUGGCGAAUGGGACCCA [U9A C66G],1.1
9,GGCCGGCAAGGUCCCAGCCUCCUCGCUGGCGCCGGCUGGGCAACAGUCCGAGGGGACCGUCCCCUCGGUAAUGGCGAAUGGGACCCA [U9A U46G],1.08
10,GGCCGGCAAGGUCCCAGCCUCCUCGCUGGCGCCGGCUGGGCAACACUCCGAGGGGACCGUCCCCUCGGUAAUGGCGAAUGGGACCCA [U9A U46C],0.831
11,GGCCGGCAAGUUCCCAGCCUCCUCGCUGGCGCCGGCUGGGCAACAUUCCGAGGGGACCGUCCCCUCGGUAAUGGCGAAUGGGACCCA [U9A G11U],0.312
12,GGCCGGCAAGGUCCCAGCCUCCUCGCUGGCGCCGGCUGGGCAACAUUGCGAGGGGACCGUCCCCUCGGUAAUGGCGAAUGGGACCCA [U9A C48G],1.31
13,GGCCGGCACGGUCCCAGCCUCCUCGCUGGCGCAGGCUGGGCAACAUUCCGAGGGGACCGUCCCCUCGGUAAUGGCGAAUGGGACCCA [U9C C33A],0.489
14,GGCCGGCAAGGUCCCAGCCUCCUCGCUGGCGCCGGCUGGGCAACAUUCCGAGGGGACCGUCCCCUCGGGAAUGGCGAAUGGGACCCA [U9A U69G],1.06
15,GGCCGGCAAGGUCCCAGCCUCCUCGCUGGCGCCGGCUGGGCAACAUUCCGAGCGGACCGUCCCCUCGGUAAUGGCGAAUGGGACCCA [U9A G53C],0.974
16,GGCCGGCAAGGUCCCAGCCUCCUCGCUGGCGCCGGCUGGGCAACAUUCCGAGGGGACCGUCCCCUCGGUAAUGGCGAAUGAGACCCA [U9A G81A],0.396
